T1: human EpCAM (CHO/EpCAM cells) (Homo sapiens, UniProt P16422)
T1 construct: full-length of human EpCAM (aa 1-314); expressed in transfected cells; host or cells: CHO (Chinese hamster ovary) cells
T1 sequence (P16422 24-314): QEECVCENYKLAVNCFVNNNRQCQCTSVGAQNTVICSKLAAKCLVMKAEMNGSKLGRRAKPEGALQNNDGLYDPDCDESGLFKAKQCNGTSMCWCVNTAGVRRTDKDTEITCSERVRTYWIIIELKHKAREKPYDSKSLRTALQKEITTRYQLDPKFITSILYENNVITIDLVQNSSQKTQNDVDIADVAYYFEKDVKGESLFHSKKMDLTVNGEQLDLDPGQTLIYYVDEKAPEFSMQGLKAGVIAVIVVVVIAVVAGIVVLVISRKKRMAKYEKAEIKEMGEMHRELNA

B1: 1G10: murine anti-human EpCAM monoclonal antibody (IgG1, K), hybridoma m290-1G10; VH SEQ ID NO:7, VL SEQ ID NO:9 (antibody, listed as Mus musculus, V domains shown)
VH: QIQLVQSGPELKKPGETVKISCKASGYTFTNYGMNWVKQAPGKGFKWMGWINTYTGEPTYADDFKGRFAFSLETSASTAYLQINNLQNEDMATYFCARWGYDFDYWGQGTTLTVSS
VL: QIVLTQSPAIMSSSPGEKVTMTCSASSSISYMNWYQQKPGTSPKRWIYDTSKLASGVPARFSGSGSGTSYSLTISSMEAEDAATYYCHQRSSYPYTFGGGTKLEIKR
B2: 1F10: murine anti-human EpCAM monoclonal antibody (IgG1, λ1), hybridoma m338-1F10.3; VH SEQ ID NO:11, VL SEQ ID NO:13 (antibody, listed as Mus musculus, V domains shown)
VH: EVKLLESGGGLVQPGGSLKLSCAASGFDFSRYWMSWVRQAPGKGLEWIGEINPDSSTMNYTPSLKDKFIISRDNAKNTLYLQMSKVRSEDTALYYCARGAYAMDYWGQGTSVTVSS
VL: QAVVTQESALTTSPGETVTLTCRSSTGAVTTSNNANWVQEKPDHLFTGLIGATNNRAPGVPARFSGSLIGDKAALTITGAQTEDEAIYFCALWYINHWVFGGGTKLTVLG

How the values were obtained:
[1] = test system: Breast cancer T-47D cells; assay: Antibody cytotoxicity assay (Annexin V + PI), T-47D; format: cell-based; settings: for Induction of cell death (in words): 1, 3 and 10 μg/ml, overnight; for Cytotoxic effect (Annexin V + PI staining, dead cells): 17-20 hr
Description: (§1) After a 17-20 hr incubation at 37° C., cells were stained with 0.3 μl of FITC-conjugated Annexin V (Strong Biotech Corp. Cat. No. AVK250) in 50 μl Annexin V binding buffer (Strong Biotech Corp. Cat. No. AVK250) at RT for 20 min. After wash, the cells were then stained with 0.3 μl of propidium iodide in 200 μl Annexin V binding buffer. Annexin V and Propidium Iodide were used as a joint indicator for cell death. The data were acquired with BD FACSCalibur based on an acquisition of 3,000-5,000 cells and analyzed with the Cell Quest software. The combined percentages of the Annexin V+/PI+, Annexin V+/PI− and Annexin V−/PI+populations were considered as dead cells.

[2] = test system: Lung cancer NCI-H520 cells; assay: Antibody cytotoxicity assay (Annexin V + PI), NCI-H520; format: cell-based; settings: for Induction of cell death (in words): 1, 3 and 10 μg/ml, overnight; for Cytotoxic effect (Annexin V + PI staining, dead cells): 17-20 hr
Description: as §1

[3] = molecular target: T1, human EpCAM (CHO/EpCAM cells); assay: FACS binding of anti-EpCAM antibodies to CHO/EpCAM cells; settings: antibody 0.1 μg/ml; HPS at 300x dilution
Description: The cDNAs encoding full-length of human EpCAM (aa 1-314) were amplified by PCR from the cDNA pool generated from T-47D cells and cloned into the modified pcDNA 3.1/Myc-His(+) A vector (Invitrogen), followed by transfecting into Chinese hamster ovary (CHO) cells at 80-90% confluence in 6-well culture dishes, using Lipofectamine 2000 (Invitrogen, Cat. No. 11668-500). Transfectants were selected in F12/10% FBS medium containing 600 ug/ml Hygromycin B (C.A. IN-10687-010). Transfected cells expressing hEpCAM were identified by flow cytometry with anti-EpCAM antibodies.
1×10^5 CHO/EpCAM or CHO parental cells were seeded in each well of a v-bottomed 96-well plate and incubated with purified anti-EpCAM antibodies or mouse IgG control antibody 9E10 at concentration of 0.1 μg/ml. A 300× dilution of human cell hyper-immune serum (HPS 300×) was used as binding positive control for both cell lines here. After 1 hr incubation at 4° C., cells were washed twice with 200 μl FACS buffer (1×PBS containing 1% FBS), stained with 100 μl of 1 μg/ml goat-anti-mouse IgG-PE (Southern Biotech, Cat. No. 1032-09) in FACS buffer and then incubated at 4° C. for 30 min. Cells were washed thrice with FACS buffer and analyzed by flow cytometry (BD LSR, BD Life Sciences).

[4] = test system: NCI-H358 lung cancer cells; assay: Cell death in NCI-H358 lung cancer cells (Annexin V + PI); format: cell-based, human; settings: mAb 10 μg/ml, 17 hr; for % of Annexin V + PI staining (untreated background subtracted), Mean ± SEM: mean of 5 experiments
Description: (§2) 5×10^4 NCI-H358 cells were seeded to each well of a 96-well plate, and then 10 μg/ml of anti-EpCAM or control (9E10) mAbs diluted in the medium was added into the cells. After a 17-hr incubation at 37° C., the cells were stained with 0.3 μl of FITC-conjugated Annexin V (Strong Biotech Corp. Cat. No. AVK250) in 50 μl Annexin V binding buffer (Strong Biotech Corp. Cat. No. AVK250) at RT for 20 min. After wash, the cells were then stained with 0.3 μl of propidium iodide in 200 μl Annexin V binding buffer. Annexin V and Propidium Iodide were used as a joint indicator for measuring cell death. The data were acquired with BD FACSCalibur based on an acquisition of 3,000-5,000 cells and analyzed with the Cell Quest software. The combined percentages of the Annexin V+/PI+, Annexin V+/PI− and Annexin V−/PI+populations were considered as dead cells.

[5] = test system: Colorectal cancer DLD-1 cells; assay: Antibody cytotoxicity assay (Annexin V + PI), DLD-1; format: cell-based; settings: for Induction of cell death (in words): 1, 3 and 10 μg/ml, overnight; for Cytotoxic effect (Annexin V + PI staining, dead cells): 17-20 hr
Description: as §1

[6] = test system: COLO 205 colon cancer cells; assay: Cytotoxicity of anti-EpCAM antibodies in combination with oxaliplatin in COLO 205; format: cell-based, human; settings: 24 hr
Description: as §2, with “Oxaliplatin, combined with infusional administration of 2 other chemotherapy drugs, 5-fluorouracil/leucovorin (5-FU/LV), is now considered as one of the as first-line treatments for people with advanced carcinoma of the colon or rectum (André et al. (2004) N Engl J Med 350(23):2343-2351). To test the cytotoxicity of anti-EpCAM antibodies in the presence of oxaliplatin, 1×10^5 COLO 205 cells” for “5×10^4 NCI-H358 cells”, “then 0.03, 0.3 and 3” for “then 10”, “mAbs in combination with oxaliplatin at concentration of 0, 0.01, 0.1, and 1 μg/ml” for “mAbs”, “medium were” for “medium was”, “a 24-hr” for “a 17-hr”

[7] = mAb 0.03 μg/ml, oxaliplatin 0 μg/ml
[8] = mAb 0.3 μg/ml + oxaliplatin 1 μg/ml
[9] = mAb 0.3 μg/ml, oxaliplatin 0 μg/ml
[10] = mAb 3 μg/ml + oxaliplatin 0.01 μg/ml
[11] = mAb 3 μg/ml + oxaliplatin 1 μg/ml
[12] = mAb 3 μg/ml, oxaliplatin 0 μg/ml

Molecule	Induction of cell death (in words) [1]	Cytotoxic effect (Annexin V + PI staining, dead cells) ([1]; mAb 1.0 μg/ml) [%]	Cytotoxic effect (Annexin V + PI staining, dead cells) ([1]; mAb 3.0 μg/ml) [%]	Cytotoxic effect (Annexin V + PI staining, dead cells) ([1]; mAb 10 μg/ml) [%]	Induction of cell death (in words) [2]	Cytotoxic effect (Annexin V + PI staining, dead cells) ([2]; mAb 1.0 μg/ml) [%]	Cytotoxic effect (Annexin V + PI staining, dead cells) ([2]; mAb 3.0 μg/ml) [%]	Cytotoxic effect (Annexin V + PI staining, dead cells) ([2]; mAb 10 μg/ml) [%]	Binding (FACS, Mean fluorescence intensity (MFI)) CHO/EpCAM [3]	% of Annexin V + PI staining (untreated background subtracted) ([4]; Exp1) [%]	% of Annexin V + PI staining (untreated background subtracted) ([4]; Exp2) [%]	% of Annexin V + PI staining (untreated background subtracted) ([4]; Exp3) [%]	% of Annexin V + PI staining (untreated background subtracted) ([4]; Exp4) [%]	% of Annexin V + PI staining (untreated background subtracted) ([4]; Exp5) [%]	% of Annexin V + PI staining (untreated background subtracted), Mean ± SEM [4] [%]	Induction of cell death (in words) [5]	Cytotoxic effect (Annexin V + PI staining, dead cells) ([5]; mAb 1.0 μg/ml) [%]	Cytotoxic effect (Annexin V + PI staining, dead cells) ([5]; mAb 3.0 μg/ml) [%]	Cytotoxic effect (Annexin V + PI staining, dead cells) ([5]; mAb 10 μg/ml) [%]	% of Annexin V + PI staining (untreated background subtracted) [6, 7] [%]	further results
B1	substantial cell death	45	58	64	substantial cell death	32	41	55	6178	46	42	48	47	42	45.0 ± 1.3	substantial cell death	28	40	60	2	% of Annexin V + PI staining (untreated background subtracted) ([6]; mAb 0.03 μg/ml + oxaliplatin 0.1 μg/ml): 2%; % of Annexin V + PI staining (untreated background subtracted) ([6]; mAb 0.3 μg/ml + oxaliplatin 0.01 μg/ml): 4%; % of Annexin V + PI staining (untreated background subtracted) ([6]; mAb 0.3 μg/ml + oxaliplatin 0.1 μg/ml): 5%; % of Annexin V + PI staining (untreated background subtracted) [6, 8]: 10%; % of Annexin V + PI staining (untreated background subtracted) [6, 9]: 5%; % of Annexin V + PI staining (untreated background subtracted) [6, 10]: 38%; % of Annexin V + PI staining (untreated background subtracted) [6, 11]: 54%; % of Annexin V + PI staining (untreated background subtracted) [6, 12]: 46%
B2	substantial cell death	51	50	50	substantial cell death	40	46	57	5634	32	30	40	39	37	35.6 ± 2.0	substantial cell death	65	65	61	−1	% of Annexin V + PI staining (untreated background subtracted) ([6]; mAb 0.03 μg/ml + oxaliplatin 0.01 μg/ml): −1%; % of Annexin V + PI staining (untreated background subtracted) ([6]; mAb 0.03 μg/ml + oxaliplatin 1 μg/ml): 5%; % of Annexin V + PI staining (untreated background subtracted) [6, 8]: 22%; % of Annexin V + PI staining (untreated background subtracted) [6, 9]: 6%; % of Annexin V + PI staining (untreated background subtracted) [6, 10]: 52%; % of Annexin V + PI staining (untreated background subtracted) ([6]; mAb 3 μg/ml + oxaliplatin 0.1 μg/ml): 57%; % of Annexin V + PI staining (untreated background subtracted) [6, 11]: 61%; % of Annexin V + PI staining (untreated background subtracted) [6, 12]: 54%
